This passage reports Kd results from patent publication US20240400708A1.

Numbering of substitutions follows the chain as printed. Numbers in names are those of the source.

First the molecules themselves.
B1: feline IgG1a mutant ID No. 282: S252Y, Q311W, D312P, L314K (antibody, part only; not given: Variable domains, not shown: another chain or arm of the molecule)
constant: ASTTAPSVFPLAPSCGTTSGATVALACLVLGYFPEPVTVSWNSGALTSGVHTFPAVLQASGLYSLSSMVTVPSSRWLSDTFTCNVAHPPSNTKVDKTVRKTDHPPGPKPCDCPKCPPPEMLGGPSIFIFPPKPKDTLYISRTPEVTCLVVDLGPDDSDVQITWFVDNTQVYTAKTSPREEQFNSTYRVVSVLPILHWPWKKGKEFKCKVNSKSLPSPIERTISKAKGQPHEPQVYVLPPAQEELSRNKVSVTCLIKSFHPPDIAVEWEITGQPEPENNYRTTPPQLDSDGTYFVYSKLSVDRSHWQRGNTYTCSVSHEALHSHHTQKSLTQSPGK
B2: feline IgG1a mutant ID No. 334: S428Y, D312P, S434Y, T250Q, S252H (antibody, part only; not given: Variable domains, not shown: another chain or arm of the molecule)
constant: B1 constant with T136Q, Y138H, W197Q, K200L, S316Y, S322Y
B3: feline IgG1a mutant ID No. 288: S252Y, S428Y, D312P, S434Y (antibody, part only; not given: Variable domains, not shown: another chain or arm of the molecule)
constant: B1 constant with W197Q, K200L, S316Y, S322Y
B4: feline IgG1a mutant ID No. 339: S252Y, S428M, S434F, P247L (antibody, part only; not given: Variable domains, not shown: another chain or arm of the molecule)
constant: B1 constant with P133L, W197Q, P198D, K200L, S316M, S322F
B5: feline IgG1a mutant ID No. 337: S252Y, S428M, S434F, D312H (antibody, part only; not given: Variable domains, not shown: another chain or arm of the molecule)
constant: B1 constant with W197Q, P198H, K200L, S316M, S322F
B6: feline IgG1a mutant ID No. 336: S252Y, S428M, S434F, A431K (antibody, part only; not given: Variable domains, not shown: another chain or arm of the molecule)
constant: B1 constant with W197Q, P198D, K200L, S316M, A319K, S322F
B7: feline IgG1a mutant ID No. 301: S428Y, Q311W, L314K, S434Y (antibody, part only; not given: Variable domains, not shown: another chain or arm of the molecule)
constant: B1 constant with Y138S, P198D, S316Y, S322Y
B8: feline IgG1a mutant ID No. 318: S428M, A431K, S434Y (antibody, part only; not given: Variable domains, not shown: another chain or arm of the molecule)
constant: B1 constant with Y138S, W197Q, P198D, K200L, S316M, A319K, S322Y
B9: feline IgG1a mutant ID No. 317: S428M, A431K, S434P (antibody, part only; not given: variable domains and light chain, not shown: another chain or arm of the molecule)
constant: B1 constant with Y138S, W197Q, P198D, K200L, S316M, A319K, S322P
B10: feline IgG1a mutant ID No. 326: S428Y, D312P, S434Y, P247V, S252H (antibody, part only; not given: Variable domains, not shown: another chain or arm of the molecule; small tags and cut ends)
constant: B1 constant with P133V, Y138H, W197Q, K200L, S316Y, S322Y
B11: feline IgG1a mutant ID No. 280: S252R, S434Y, Q311W (antibody, part only; not given: Variable domains, not shown: another chain or arm of the molecule)
constant: B1 constant with Y138R, P198D, K200L, S322Y
B12: feline IgG1a mutant ID No. 281: S252Y, D312P, L314K, S434Y (antibody, part only; not given: Variable domains, not shown: another chain or arm of the molecule)
constant: B1 constant with W197Q, S322Y
B13: feline IgG1a mutant ID No. 325: S428Y, D312P, S434Y, D401R, T403R (antibody, part only; not given: Variable domains, not shown: another chain or arm of the molecule)
constant: B1 constant with Y138S, W197Q, K200L, D289R, T291R, S316Y, S322Y
B14: feline IgG1a mutant ID No. 331: S428Y, D312P, S434Y, Q311M, L314K (antibody, part only; not given: Variable domains, not shown: another chain or arm of the molecule; small tags and cut ends)
constant: B1 constant with Y138S, W197M, S316Y, S322Y
B15: feline IgG1a mutant ID No. 283: S252Y, Q311W, D312P, L314K, S434Y (antibody, part only; not given: Variable domains, not shown: another chain or arm of the molecule)
constant: B1 constant with S322Y
B16: feline IgG1a mutant ID No. 340: S252Y, S428M, S434F, Q311R (antibody, part only; not given: Variable domains, not shown: another chain or arm of the molecule)
constant: B1 constant with W197R, P198D, K200L, S316M, S322F
B17: feline IgG1a mutant ID No. 324: S428Y, D312P, S434Y, D399M, T403R (antibody, part only; not given: Variable domains, not shown: another chain or arm of the molecule)
constant: B1 constant with Y138S, W197Q, K200L, D287M, T291R, S316Y, S322Y
B18: feline IgG1a mutant ID No. 293: S252Y, S428Y, Q311W, D312P, S434Y (antibody, part only; not given: Variable domains, not shown: another chain or arm of the molecule; small tags and cut ends)
constant: B1 constant with K200L, S316Y, S322Y
B19: feline IgG1a mutant ID No. 319: S428Y, D312P, A431K, S434P (antibody, part only; not given: variable domains, not shown: another chain or arm of the molecule)
constant: B1 constant with Y138S, W197Q, K200L, S316Y, A319K, S322P
B20: feline IgG1a mutant ID No. 294: S252Y, S428Y, Q311W, L314K (antibody, part only; not given: variable domains and light chain, not shown: another chain or arm of the molecule; small tags and cut ends)
constant: B1 constant with P198D, S316Y
B21: feline IgG1a mutant ID No. 285: S252Y, Q311W, L314K, S434Y (antibody, part only; not given: Variable domains, not shown: another chain or arm of the molecule)
constant: B1 constant with P198D, S322Y
B22: feline IgG1a mutant ID No. 338: S252Y, S428M, S434F, D399T (antibody, part only; not given: variable domains and light chain, not shown: another chain or arm of the molecule)
constant: B1 constant with W197Q, P198D, K200L, D287T, S316M, S322F
B23: feline IgG1a mutant ID No. 321: S428Y, D312P, S434Y, A431K (antibody, part only; not given: Variable domains, not shown: another chain or arm of the molecule)
constant: B1 constant with Y138S, W197Q, K200L, S316Y, A319K, S322Y

One test concerns the target feline FcRn complex (FcRn-α subunit and β-microglobulin) (feline). The test is described as follows: SPR (Biacore), FcRn on SA chip, pH 7.4. (In general: SPR reads the build-up and loss of mass on a sensor chip optically.)
In general, Kd refers to the free concentration of one partner at which half of the binding sites on the other are occupied at equilibrium, for simple one-to-one binding. High values mean a looser complex, low ones a tighter complex. Molecule B1 returned a Kd of 119 nM.

For the molecule B2, the Kd turned out to be 19.9 nM.

Molecule B3 displayed a Kd of 3.22 nM.

B4 came in with a Kd of 6.73 nM.

On to B5, for which the Kd amounted to 8.96 nM.

Regarding B6, the Kd amounted to 7.28 nM.

B7 yielded a Kd of 494 nM.

B8 came in with a Kd of 25.3 nM.

As for B9, the Kd came to 15.6 nM.

Regarding B10, the Kd worked out at 13.7 nM.

In the case of B11, the Kd came out at 4400 nM.

Molecule B12 had a Kd of 1590 nM.

As to B13, the Kd came out at 11.1 nM.

In the case of B14, the Kd was determined as 14.6 nM.

For the molecule B15, the Kd is 300 nM.

In the case of B16, the Kd was 3.3 nM.

In the case of B17, the Kd stood at 21.6 nM.

Molecule B18 showed a Kd of 2930 nM.

For B19, the Kd was found to be 1080 nM.

Molecule B20 returned a Kd of 12.8 nM.

Regarding B21, the equilibrium dissociation constant (Kd) stood at 1730 nM.

Regarding B22, the Kd stood at 13.8 nM.

In the case of B23, the Kd worked out at 10.2 nM.

Another test has the same target. The experiment in a line: SPR (Biacore), FcRn on SA chip, pH 6.
Take B1: the Kd worked out at 30 nM.

The molecule B2 showed a Kd of 0.182 nM.

As for B3, the dissociation constant Kd was determined as 0.0268 nM.

In the case of B4, the dissociation constant Kd is 0.0168 nM.

For the molecule B5, the Kd amounted to 0.0272 nM.

As for B6, the Kd is 0.0359 nM.

As for B7, the Kd came to 1.11 nM.

The molecule B8 returned a Kd of 0.135 nM.

As to B9, the Kd was 22.2 nM.

B10: the Kd was found to be 0.0627 nM.

In the case of B11, the dissociation constant Kd turned out to be 2.87 nM.

Molecule B12 returned a Kd of 2.35 nM.

As to B13, the Kd amounted to 0.0072 nM.

For B14, the Kd came out at 0.259 nM.

With B15, the Kd was determined as 1.14 nM.

B16 came in with a Kd of 0.025 nM.

Consider B17, for which the dissociation constant (Kd) is 0.113 nM.

As to B18, the Kd is 1.07 nM.

As for B19, the Kd is 6.96 nM.

On to B20, for which the Kd was 0.692 nM.

On to B21, for which the Kd came out at 1.21 nM.

The molecule B22 came in with a Kd of 0.0272 nM.

Molecule B23 had a Kd of 0.0539 nM.
